Entries after “also recorded” stand apart in the source; their conditions may differ. Read-outs that look alike come from different tables or passages of the source.
B1: PRO21175 (IL-17D ligand) (ligand, UniProt Q8TAD2 16-202, looked up)
chain: AGAPRAGRRPARPRGCADRPEELLEQLYGRLAAGVLSAFHHTLQLGPREQARNASCPAGGRPADRRFRPPTNLRSVSPWAYRISYDPARYPRYLPEAYCLCRGCLTGLFGEEDVRFRSAPVYMPTVVLRRTPACAGGRSVYTEAYVTIPVGCTCVPEPEKDADSINSSIDKQGAKLLLGPNDAPAGP
B2: PRO1122 (IL-17C ligand) (ligand, UniProt Q9P0M4 19-197, looked up)
chain: HHDPSLRGHPHSHGTPHCYSAEELPLGQAPPHLLARGAKWGQALPVALVSSLEAASHRGRHERPSATTQCPVLRPEEVLEADTHQRSISPWRYRVDTDEDRYPQKLAFAECLCRGCIDARTGRETAALNSVRLLQSLLVLRRRPCSRDGSGLPTPGAFAFHTEFIHVPVGCTCVLPRSV
B3: IL-17F: human IL-17F ligand, SEQ ID NO:4 (protein, listed as Homo sapiens)
chain: MTVKTLHGPAMVKYLLLSILGLAFLSEAAARKIPKVGHTFFQKPESCPPVPGGSMKLDIGIINENQRVSMSRNIESRSTSPWNYTVTWDPNRYPSEVVQAQCRNLGCINAQGKEDISMNSVPIQQETLVVRRKHQGCSVSFQLEKVLVTVGCTCVTPVIHHVQ

Key:
[1] = target: T1, PRO5801 (human IL-17RH1 receptor) as tested in the receptor/ligand screen (human, UniProt Q9NRM6 18-292, limits assumed); test: receptor/ligand screen, FIG. 14
T1 sequence (looked up): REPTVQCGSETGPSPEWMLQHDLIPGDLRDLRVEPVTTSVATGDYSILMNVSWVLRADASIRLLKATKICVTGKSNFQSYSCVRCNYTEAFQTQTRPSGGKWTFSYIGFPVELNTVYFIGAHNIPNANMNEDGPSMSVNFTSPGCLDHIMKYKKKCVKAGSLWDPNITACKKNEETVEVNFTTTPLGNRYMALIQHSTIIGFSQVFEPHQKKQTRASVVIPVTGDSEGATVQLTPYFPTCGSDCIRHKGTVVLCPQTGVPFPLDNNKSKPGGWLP
From the text: A PRO polypeptide of the present invention suspected of being a ligand for a receptor is expressed as a fusion protein containing the Fc domain of human IgG (an immunoadhesin). Receptor-ligand binding is detected by allowing interaction of the immunoadhesin polypeptide with cells (e.g. Cos cells) expressing candidate PRO polypeptide receptors and visualization of bound immunoadhesin with fluorescent reagents directed toward the Fc fusion domain and examination by microscope. Cells expressing candidate receptors are produced by transient transfection, in parallel, of defined subsets of a library of cDNA expression vectors encoding PRO polypeptides that may function as receptor molecules. Cells are then incubated for 1 hour in the presence of the PRO polypeptide immunoadhesin being tested for possible receptor binding. The cells are then washed and fixed with paraformaldehyde. The cells are then incubated with fluorescent conjugated antibody directed against the Fc portion of the PRO polypeptide immunoadhesin (e.g. FITC conjugated goat anti-human-Fc antibody). The cells are then washed again and examined by microscope. A positive interaction is judged by the presence of fluorescent labeling of cells transfected with cDNA encoding a particular PRO polypeptide receptor or pool of receptors and an absence of similar fluorescent labeling of similarly prepared cells that have been transfected with other cDNA or pools of cDNA. If a defined pool of cDNA expression vectors is judged to be positive for interaction with a PRO polypeptide immunoadhesin, the individual cDNA species that comprise the pool are tested individually (the pool is “broken down”) to determine the specific cDNA that encodes a receptor able to interact with the PRO polypeptide immunoadhesin.
In another embodiment of this assay, an epitope-tagged potential ligand PRO polypeptide (e.g., 8 histidine “His” tag) is allowed to interact with a panel of potential receptor PRO polypeptide molecules that have been expressed as fusions with the Fc domain of human IgG (immunoadhesins). Following a 1 hour co-incubation with the epitope tagged PRO polypeptide, the candidate receptors are each immunoprecipitated with protein A beads and the beads are washed. Potential ligand interaction is determined by Western blot analysis of the immunoprecipitated complexes with antibody directed towards the epitope tag.

[2] = target: human IL-17 receptor (IL-17R, PRO1) (Homo sapiens, UniProt Q96F46); test: Receptor/ligand interaction screening assay (immunoadhesin); assay type: binding
Experimental: (§1) In general, the assay is performed as follows. A PRO polypeptide of the present invention suspected of being a ligand for a receptor is expressed as a fusion protein containing the Fc domain of human IgG (an immunoadhesin). Receptor-ligand binding is detected by allowing interaction of the immunoadhesin polypeptide with cells (e.g. Cos cells) expressing candidate PRO polypeptide receptors and visualization of bound immunoadhesin with fluorescent reagents directed toward the Fc fusion domain and examination by microscope. Cells expressing candidate receptors are produced by transient transfection, in parallel, of defined subsets of a library of cDNA expression vectors encoding PRO polypeptides that may function as receptor molecules. Cells are then incubated for 1 hour in the presence of the PRO polypeptide immunoadhesin being tested for possible receptor binding. The cells are then washed and fixed with paraformaldehyde. The cells are then incubated with fluorescent conjugated antibody directed against the Fc portion of the PRO polypeptide immunoadhesin (e.g. FITC conjugated goat anti-human-Fc antibody). The cells are then washed again and examined by microscope. A positive interaction is judged by the presence of fluorescent labeling of cells transfected with cDNA encoding a particular PRO polypeptide receptor or pool of receptors and an absence of similar fluorescent labeling of similarly prepared cells that have been transfected with other cDNA or pools of cDNA. If a defined pool of cDNA expression vectors is judged to be positive for interaction with a PRO polypeptide immunoadhesin, the individual cDNA species that comprise the pool are tested individually (the pool is “broken down”) to determine the specific cDNA that encodes a receptor able to interact with the PRO polypeptide immunoadhesin.
(§2) In another embodiment of this assay, an epitope-tagged potential ligand PRO polypeptide (e.g., 8 histidine “His” tag) is allowed to interact with a panel of potential receptor PRO polypeptide molecules that have been expressed as fusions with the Fc domain of human IgG (immunoadhesins). Following a 1 hour co-incubation with the epitope tagged PRO polypeptide, the candidate receptors are each immunoprecipitated with protein A beads and the beads are washed. Potential ligand interaction is determined by Western blot analysis of the immunoprecipitated complexes with antibody directed towards the epitope tag. An interaction is judged to occur if a band of the anticipated molecular weight of the epitope tagged protein is observed in the Western blot analysis with a candidate receptor, but is not observed to occur with the other members of the panel of potential receptors.

[3] = target: T2, PRO20040 (human IL-17RH2 receptor) (Homo sapiens, UniProt Q8NAC3); test: as above; assay type: binding
T2 sequence (Q8NAC3 21-791): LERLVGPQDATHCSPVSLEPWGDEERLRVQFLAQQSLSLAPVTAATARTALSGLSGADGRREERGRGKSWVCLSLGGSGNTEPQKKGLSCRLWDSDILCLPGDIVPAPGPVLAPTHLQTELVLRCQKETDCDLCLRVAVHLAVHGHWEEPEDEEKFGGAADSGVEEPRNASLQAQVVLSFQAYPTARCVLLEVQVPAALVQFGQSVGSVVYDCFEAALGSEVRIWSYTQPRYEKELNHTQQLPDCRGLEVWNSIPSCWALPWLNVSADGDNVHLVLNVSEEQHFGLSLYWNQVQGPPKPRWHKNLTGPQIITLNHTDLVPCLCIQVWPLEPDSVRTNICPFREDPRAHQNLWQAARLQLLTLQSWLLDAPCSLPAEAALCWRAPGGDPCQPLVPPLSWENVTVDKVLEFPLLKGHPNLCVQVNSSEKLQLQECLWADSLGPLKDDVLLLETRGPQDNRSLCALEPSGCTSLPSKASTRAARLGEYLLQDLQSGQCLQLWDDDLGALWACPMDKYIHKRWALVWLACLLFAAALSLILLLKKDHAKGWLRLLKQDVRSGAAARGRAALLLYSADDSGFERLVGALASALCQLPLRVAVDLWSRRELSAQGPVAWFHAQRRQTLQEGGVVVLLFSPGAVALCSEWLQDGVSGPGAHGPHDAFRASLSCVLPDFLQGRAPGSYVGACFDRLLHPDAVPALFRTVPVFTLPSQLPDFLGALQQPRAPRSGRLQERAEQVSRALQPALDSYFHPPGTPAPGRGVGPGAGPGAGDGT
Experimental: as §1, §2

| Molecule | binding result [1] | binding to human IL-17 receptor (IL-17R, PRO1) [2] | binding to IL-17RH2 receptor (PRO20040) [3] | binding to human IL-17 receptor (IL-17R, PRO1) ([2]; listed as PRO1122) | binding to IL-17RH2 receptor (PRO20040) ([3]; listed as PRO20110) |
| --- | --- | --- | --- | --- | --- |
| B1 | no binding | do not interact | do not interact |  |  |
| B2 | no binding | do not interact | do not interact | do not bind |  |
| B3 |  | binds to | has been shown to bind; also recorded: binds to |  | binds to |

— patent US20070160576A1, “IL-17A/F heterologous polypeptides and therapeutic uses thereof” (Genentech, Inc., priority 2001, published 2007)
